Reference: article doi:10.1101/555623
pKd: −log10 of the molar value.

Assays:
[1] = target: BRCA1 tBRCT F1662R mutant (human) (UniProt P38398); assay: MST
[2] = target: BRCA1 tBRCT L1701K mutant (human) (UniProt P38398); assay: MST

**Q.** With BACH1 phosphopeptide as the substance, how does the pKd [1] read?
**A.** The pKd was 6.07.

**Q.** And the pKd [2]?
**A.** The pKd was 5.71.
